Source: the supplement of paper PMC9170038

Tested on: MS2 coat protein
Experiment: apparent KD of MS2 coat protein; designed switch direction (-1 OFF switch, 1 ON switch): 1; higher = weaker reporter binding
Procedure, shortened: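 Designed RNA switches were transcribed on Illumina chips by stalled E. coli RNA polymerase and titrated with SNAP-549-labelled MS2 coat protein from 0.7 or 1.5 nM, doubling to 3 µM. Step length ran from 0.8–1.5 h at the lowest concentration to 10–20 min at the highest. The apparent KD is the median over clusters for each design, from curve-fitted normalised cluster fluorescence.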

[1] = input ligand: microRNA oligo, concentration not stated
[2] = Eterna round: R95, input ligand: FMN 200 uM
[3] = Eterna round: R95, input ligand: microRNA oligo, concentration not stated
[4] = Eterna round: R95, input ligand: none

GCCAUCGAAUGAGGAUAUGGCACCGUUUCGGUGCCAGAAGGCAUGUCAAUUGACAUGAGGAUCACCCAUGUAUUAUCGAUGGCA [JL Fiskers NG1ss - 33 mod 5] (Eterna round: R96, puzzle: Same State NG 1)
apparent KD of MS2 coat protein (input ligand: FMN 200 uM): 119 nM | apparent KD of MS2 coat protein [1]: 712 nM | apparent KD of MS2 coat protein (input ligand: none): 1640 nM

ACGCAGCUGGGUGAGGAUAUCGGUGGUAAAACAUGAGGAUCACCCAUGUCCGAAGCUCGGACCUCCGAGAAGGCGCCCGGCUGCG [Soinraesar Omei Mod 1] (puzzle: Same State 2)
apparent KD of MS2 coat protein [2]: 5.47 nM | apparent KD of MS2 coat protein [3]: 5.25 nM | apparent KD of MS2 coat protein [4]: 5.11 nM

GGUCCAGCCUGAGCUGGACAAAAGCAUGUACAUGAGGAUCACCCAUGUCAUGUACAAGCUUUUUGCUCGUCUUAAUU [Mat - hsa-mir-208a - 87] (puzzle: Sensor for hsa-mir-208a)
apparent KD of MS2 coat protein [2]: 514 nM | apparent KD of MS2 coat protein [3]: 15.1 nM | apparent KD of MS2 coat protein [4]: 762 nM

CGACCAAUUGUUUAAUAAACAUGAGGAUCACCCAUGUUUCGUGAGGAUAUCUAGGGUGAAGCACGGGAGAAGGCACUACGGUCA [Eternabot solution 21] (Eterna round: R96, puzzle: Same State NG 3)
apparent KD of MS2 coat protein (input ligand: FMN 200 uM): 142 nM | apparent KD of MS2 coat protein [1]: 120 nM | apparent KD of MS2 coat protein (input ligand: none): 134 nM

GCUAGUAAAAUUGCUAACAUGAGGAUCACCCAUGUAUGUUGGCAGGAUAUCGUUUGCAAAGCAAACGAGAAGGGCUAAACUAGC [Mat - Same State NG 3 - JL Mod - D15] (Eterna round: R96, puzzle: Same State NG 3)
apparent KD of MS2 coat protein (input ligand: FMN 200 uM): 30.2 nM | apparent KD of MS2 coat protein [1]: 47.5 nM | apparent KD of MS2 coat protein (input ligand: none): 86.8 nM

CACAAUCUAUCUGAGGAUAUCAUGAAAAAAACAUGAGGAUCACCCAUGUGCAGGAAAACUGCAUAUGAGAAGGCAGAUAGAUUGU [salish99_SS2_r3_015] (puzzle: Same State 2)
apparent KD of MS2 coat protein [2]: 28.3 nM | apparent KD of MS2 coat protein [3]: 720 nM | apparent KD of MS2 coat protein [4]: 913 nM

GGUCCAGCCUGAGCUGGACAAAAGCAUGUACAUGAGGAUCACCCAUGUUCAUGUACAAGCUUUUUGCUCGUCUUAAC [salish99_208a_r3_038] (puzzle: Sensor for hsa-mir-208a)
apparent KD of MS2 coat protein [2]: 530 nM | apparent KD of MS2 coat protein [3]: 16.9 nM | apparent KD of MS2 coat protein [4]: 648 nM

CGUUGGACAUCCAGCAAGACAUGAGGAUCACCCAUGUAGGCGCAGGAUAUGCGGGUUCGGUGCUCGCAGAAGGGUGAAGAAAAC [Araerar] (Eterna round: R96, puzzle: Same State NG 3)
apparent KD of MS2 coat protein (input ligand: FMN 200 uM): 35.5 nM | apparent KD of MS2 coat protein [1]: 21.3 nM | apparent KD of MS2 coat protein (input ligand: none): 30.4 nM

AACAAUCUAUCUGAGGAUAUCAUGUAAUAAACAUGAGGAUCACCCAUGUGCAGGAAAACUGCAUAUGAGAAGGCAGAUAGAUUGA [salish99_ss2_r3_030] (puzzle: Same State 2)
apparent KD of MS2 coat protein [2]: 182 nM | apparent KD of MS2 coat protein [3]: 134 nM | apparent KD of MS2 coat protein [4]: 180 nM

AGAUCAUGACGAGGAUAUGGUACAUGAGGAUCACCCAUGUAUGUACCAUAACGCGUACGACGAAACCAGAAGGCGUCGUGAUCA [Mat - Same State NG 2 - JL mod - D41] (Eterna round: R96, puzzle: Same State NG 2)
apparent KD of MS2 coat protein (input ligand: FMN 200 uM): 9.06 nM | apparent KD of MS2 coat protein [1]: 12.2 nM | apparent KD of MS2 coat protein (input ligand: none): 20.7 nM

AUAAAACAUGAGGAUCACCCAUGUCAACAAUGUCGAGGAUAUGGGCAAAUAAAAUAAGAACCAGAAGGCGAAUAAU [salish99_ss1_r3_039] (puzzle: Same State 1)
apparent KD of MS2 coat protein [2]: 43.2 nM | apparent KD of MS2 coat protein [3]: 248 nM | apparent KD of MS2 coat protein [4]: 507 nM

GGUGCAAUAAACGCCUACAUGAGGAUCACCCAUGUAUGUAGGCAGGAUAUCGUUUGCAAAGCAAACGAGAAGGGCUGUAGUACC [Mat - Same State NG 3 - JL Mod - D41] (Eterna round: R96, puzzle: Same State NG 3)
apparent KD of MS2 coat protein (input ligand: FMN 200 uM): 51.5 nM | apparent KD of MS2 coat protein [1]: 82.3 nM | apparent KD of MS2 coat protein (input ligand: none): 142 nM

GCUCGAUGAGCGAUUUACAUGAGGAUCACCCAUGUACGUGGGCAGGAUAUUUACGUGCGGUGUGUAGAGAAGGGCCCAUCGAGC [SameState NG3 #71] (Eterna round: R96, puzzle: Same State NG 3)
apparent KD of MS2 coat protein (input ligand: FMN 200 uM): 62.5 nM | apparent KD of MS2 coat protein [1]: 206 nM | apparent KD of MS2 coat protein (input ligand: none): 332 nM

AUUAAACAUGAGGAUCACCCAUGUCAUCAAAGUCGAGGAUAUGGGCAAAUAAAAUAAGAACCAGAAGGCGAAUAAU [salish99_ss1_r3_073] (puzzle: Same State 1)
apparent KD of MS2 coat protein [2]: 69.6 nM | apparent KD of MS2 coat protein [3]: 122 nM | apparent KD of MS2 coat protein [4]: 269 nM

UUCUCAUUUACAUGAGGAUCACCCAUGUUUUUUUGUCAGAAAUAGGAUAUAGGUCUCUCGUUUUACUAGAAGGAUUUCUUUAUU [JR_SSNG3_Sub088] (Eterna round: R96, puzzle: Same State NG 3)
apparent KD of MS2 coat protein (input ligand: FMN 200 uM): 146 nM | apparent KD of MS2 coat protein [1]: 134 nM | apparent KD of MS2 coat protein (input ligand: none): 145 nM

CUGAGCGAUCAAGGAUAUCACGUCGUUUAGACGUGAGAAGGUGAUCAUAACAUGAGGAUCACCCAUGUAUUACAUGAAGCUCAG [SSNG1/2-A3] (Eterna round: R96, puzzle: Same State NG 1)
apparent KD of MS2 coat protein (input ligand: FMN 200 uM): 208 nM | apparent KD of MS2 coat protein [1]: 462 nM | apparent KD of MS2 coat protein (input ligand: none): 1240 nM

UUGAGAUGUACAGGAUAUGGUGAGGAUCACCCACUAGAAGGGUGCACAUGUGAAUCGGACAUGAGGAUCACCCAUGUUGGGCGU (Eterna round: R96, puzzle: Same State NG 1)
apparent KD of MS2 coat protein (input ligand: FMN 200 uM): 108 nM | apparent KD of MS2 coat protein [1]: 224 nM | apparent KD of MS2 coat protein (input ligand: none): 209 nM

AUUGCUAGCGCAGGAUAUGAUGCGAAAAUUGCGUCAGAAGGGUGUAAUCUCUCAUUGCGGGAGGACAUGAGGAUCACCCAUGUC [SameState NG1 #84] (Eterna round: R96, puzzle: Same State NG 1)
apparent KD of MS2 coat protein [1]: 123 nM

AAACUACAUGAGGAUCACCCAUGUGAAAACCGCAUAGGAUAUCCGCAGCAAUGAGCUGACGGAGAAGGGUGACCGG [Riater] (puzzle: Same State 1)
apparent KD of MS2 coat protein [2]: 175 nM | apparent KD of MS2 coat protein [3]: 103 nM | apparent KD of MS2 coat protein [4]: 276 nM

UGUGUCAUAGGUUUUUUAGCUCGUCUGAUACAUGAGGAUCACCCAUGUUAUAGCCCUGUGCUUGCGCAGGGCUGAGG [JL shm-2.xx] (puzzle: Sensor for hsa-mir-208a)
apparent KD of MS2 coat protein [2]: 50.2 nM | apparent KD of MS2 coat protein [3]: 36.6 nM | apparent KD of MS2 coat protein [4]: 56.7 nM

UGGAUCUAGGCUUGCCUGGGUCCAUGCUGACAUGAGGAUCACCCAUGUGCAUCCUACAAGCUUUUUGCUUGUCUGCC (puzzle: Sensor for hsa-mir-208a)
apparent KD of MS2 coat protein [2]: 146 nM | apparent KD of MS2 coat protein [3]: 122 nM | apparent KD of MS2 coat protein [4]: 93.7 nM

GAGGGCGAAAGCAACAUGAGGAUCACCCAUGUUGUCGAAAGGCAGGAUAUCCGGCGAAAGCAGAAGGAGAAGGGUCGAAAAGAA [AK SSNG3-V2-40] (Eterna round: R96, puzzle: Same State NG 3)
apparent KD of MS2 coat protein (input ligand: FMN 200 uM): 14.5 nM | apparent KD of MS2 coat protein [1]: 19.7 nM | apparent KD of MS2 coat protein (input ligand: none): 24.9 nM

GGUCGGACCUACAUGAGGAUCACCCAUGUUCCGGAAACGGCACAGGAUAUCUGUCCGAAAAGGUCAGAGAAGGGUGAACCGACC [Fiskers NG3ss - 75] (Eterna round: R96, puzzle: Same State NG 3)
apparent KD of MS2 coat protein (input ligand: FMN 200 uM): 1000 nM | apparent KD of MS2 coat protein [1]: 508 nM | apparent KD of MS2 coat protein (input ligand: none): 1880 nM

GUUACAUGAGGAUCACCCAUGUAUGUGUGGGAGUAAGUGUCUUAGGAUAUCUGUUAUUUAGUUUAAGAGAAGGAAGAUUGUUGU [JMF's solution 41] (Eterna round: R96, puzzle: Same State NG 3)
apparent KD of MS2 coat protein (input ligand: FMN 200 uM): 124 nM | apparent KD of MS2 coat protein [1]: 80.9 nM | apparent KD of MS2 coat protein (input ligand: none): 97.4 nM

AUUGCUUACGCAGGAUAUGAUGCGAAAAUUGCGUCAGAAGGGUGAAGUGACUCGUAGCAACAAGACAUGAGGAUCACCCAUGUC [SameState NG1 #93] (Eterna round: R96, puzzle: Same State NG 1)
apparent KD of MS2 coat protein (input ligand: FMN 200 uM): 28.2 nM | apparent KD of MS2 coat protein [1]: 26.4 nM | apparent KD of MS2 coat protein (input ligand: none): 42.1 nM

GGAGCCGGCCUAGGAUAUUUCAUAAUUAAACAUGAGGAUCACCCAUGUAGGCCAGAAGGCCUUGGGAAGAAGGAGGUCGGCUCC [Loop Effect - U26,U27] (Eterna round: R96, puzzle: Same State NG 2)
apparent KD of MS2 coat protein (input ligand: FMN 200 uM): 12.5 nM | apparent KD of MS2 coat protein [1]: 39 nM | apparent KD of MS2 coat protein (input ligand: none): 82.3 nM

AGGGAGGAAGCUGAGGAUAUCGUAAGGAGGACAUGAGGAUCACCCAUGUGUAUAGAAUUGGAGGACGAGAAGGCAGAGGAGUGGG [JR_SS2_Sub052] (puzzle: Same State 2)
apparent KD of MS2 coat protein [2]: 25.5 nM | apparent KD of MS2 coat protein [3]: 29.3 nM | apparent KD of MS2 coat protein [4]: 25.6 nM

UGCCGGAUACCGACUACAUGAGGAUCACCCAUGUUAUCUCGUUAGGAUAUACUAACAACAGAUUAGUAGAAGGGACGCGGGCUU [Eternabot solution 23] (Eterna round: R96, puzzle: Same State NG 3)
apparent KD of MS2 coat protein (input ligand: FMN 200 uM): 25.5 nM | apparent KD of MS2 coat protein [1]: 24.6 nM | apparent KD of MS2 coat protein (input ligand: none): 30.7 nM

GUAACAUGACGAGGAUAUGGAACAUGAGGAUCACCCAUGUAUGUUCCAUAACGCGAAUAAAGAAUCCAGAAGGCGUCGUGAAAU [Mat - Same State NG 2 - JL mod - D33] (Eterna round: R96, puzzle: Same State NG 2)
apparent KD of MS2 coat protein (input ligand: FMN 200 uM): 22.1 nM | apparent KD of MS2 coat protein [1]: 118 nM | apparent KD of MS2 coat protein (input ligand: none): 120 nM

CUAUCUACAGGUUGCAGUGCUCGUCUUAUACAUGAGGAUCACCCAUGUUAUAGCCCGGUGCUUGCGCUGGGCUGAUU [JL ViennaUCT Tearor mod 2] (Eterna round: R96, puzzle: Sensor for hsa-mir-208a)
apparent KD of MS2 coat protein (input ligand: FMN 200 uM): 40.9 nM | apparent KD of MS2 coat protein [1]: 16.4 nM | apparent KD of MS2 coat protein (input ligand: none): 41.1 nM

CGGGUACAUGAGGAUCACCCAUGUAGAAGAGAUGCAGGAUAUGUGGGAAAAGGGAAUGUAACAGAAGGGCAAGGAG [JR_SS!_Sub017] (puzzle: Same State 1)
apparent KD of MS2 coat protein [2]: 47.4 nM | apparent KD of MS2 coat protein [3]: 56.1 nM | apparent KD of MS2 coat protein [4]: 94.1 nM
